Reference: patent US7541183B2, “Growth and differentiation of adult muscle stem cells with activators or inhibitors of Wnt signaling” (Ottawa Health Research Institute, priority 2003, dated 2009)

What was measured:
CD45+:Sca1+ muscle cells = type: cell-based
Description: Mononuclear cells were washed twice with DMEM supplemented with 5% FBS, and suspended at a concentration of 2−3×10^6 cells/ml. […] Primary antibodies were diluted at 1:200, and Streptavidin Tri-Color Conjugate was diluted 1:1000. After two washes with DMEM at 4° C., cells were separated on a MoFlo cytometer (DakoCytomation), equipped with 3 lasers. Sort gates were strictly defined based on isotype control stained cells and single antibody staining. Dead cells and debris were excluded by gating on forward and side scatter profiles. Sorting was performed using single cell mode to achieve the highest possible purity. The purity of sorted populations was routinely >98%.
Primary myoblasts were isolated from hind limb muscle of 3-week old Balb/c mice, and maintained in HAM's F-10 medium (Invitrogen) supplemented with 20% FBS, and 2.5 ng/ml bFGF (Invitrogen).
For co-culture experiments, primary myoblasts or Wnt-expressing cells were mixed with purified CD45^+:Sca1^+ cells at a ratio of 1:1, and seeded on Collagen-coated 2-well Permanox Chamber Slides (Lab-Tek). The density was 2×10^4 cells/chamber for co-culture in growth conditions, and 4×10^4 cells/chamber for differentiation experiments. […] Fluoroscein or Rhodamine conjugated antibodies (Chemicon) were used for secondary detection. Cover slides were mounted and analyzed using a Zeiss Axioscop fluorescent microscope.

[1] = system: Myf5nLacZ+ satellite cells; test: Impact of cardiotoxin injection on myogenic progenitors in injured muscle; type: in vivo, Myf5nLacZ mice; conditions: 18 hours post-ctx injection
Description: For direct analysis of sorted cell populations, cells were washed and suspended in phosphate-buffered saline (PBS), and cytospun onto silanized slides (DAKO). X-gal staining was performed as described previously (Kablar, 1997, Development 124, 4729-4738).
5 to 8 week-old mice were anaesthetised with Halothane gas. 25 μl of 10 μM cardiotoxin (Latoxan) was injected directly into the TA muscle, using a 29 G 1/2 insulin syringe. For cell proliferation assays, 0.3 mg/kg of 5-bromo-deoxyuridine (BrdU, Sigma) was injected intraperitoneally 90 minutes prior to sacrificing animals. Cells that had incorporated BrdU were detected by flow cytometry using a FITC conjugated anti-BrdU antibody (ED Pharmingen). For sFRP experiments, 100 ng of recombinant sFRP 2 and 3 (R&D Systems) were injected into regenerating TA muscle. Control animals received injections of equal volumes of PBS. For analysis of total TA cell populations, 1×10^4 mononuclear cells were plated on collagen-coated chamber slides overnight and then stained with anti-Desmin antibody (DAKO) at 1:200. Donkey anti-mouse FITC (Chemicon) at 1:500 was used for secondary detection.

Row | Substance | increase in CD45+:Sca1+ cell survival (CD45+:Sca1+ muscle cells; 100 ng/ml Shh) | myogenic differentiation efficiency of CD45+:Sca1+ cells (CD45+:Sca1+ muscle cells; recombinant Shh at 10 or 100 ng/ml, cells alone or in co-culture with myoblasts) | reduction in the number of Myf5nLacZ+ cells relative to uninjured muscle [1] | reduction in the number of Myf5nLacZ+ cells relative to uninjured muscle ([1]; listed as ctx) | number of Myf5nLacZ+ cells ([1]; uninjured muscle 4.1×10^4±1.6×10^4)
1 | Shh: recombinant Sonic Hedgehog (Shh-N, R&D Systems) | 3-4 fold | did not influence |  |  | 
2 | cardiotoxin |  |  | ~30 fold | approximately 30 fold | 1.18×10^3±1×10^3 cells/g tissue
